# Measured values as given in US20180155451A1 (published 2018).
# Molecular target: T1, FcγRIa extracellular domain with C-terminal His tag (human, UniProt P12314 16-292)
# T1 construct: extracellular domain; soluble analyte in Biacore; also called FcgRI; CD64
# Assay: SPR (Biacore), relative FcγRIa binding, GpH7-A5/GpH7-B3/GpL16-k0 (HeCon Ab) = 100
# T1 sequence (P12314 16-292): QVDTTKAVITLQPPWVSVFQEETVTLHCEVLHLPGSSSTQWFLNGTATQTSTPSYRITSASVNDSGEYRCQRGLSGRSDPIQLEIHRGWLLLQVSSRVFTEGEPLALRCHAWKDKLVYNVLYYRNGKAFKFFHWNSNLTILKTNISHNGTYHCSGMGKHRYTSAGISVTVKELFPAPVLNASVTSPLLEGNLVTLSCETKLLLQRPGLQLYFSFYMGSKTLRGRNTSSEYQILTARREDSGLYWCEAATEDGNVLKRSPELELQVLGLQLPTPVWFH
row,He/Con_1a,Binder
1,105 % of control,"GpH7-A5/GpH7-B3 variant S324_10E/GpL16-k0 (antibody, human IgG1, kappa, heterodimerized antibody, mutation in one H chain only; also called S324_10E He Ab) heavy 1: not shown heavy 2: not shown light: DIVMTQSPLSLPVTPGEPASISCQASESLVHSNRNTYLHWYLQKPGQSPQLLIYKVSNRFSGVPDRFSGSGSGTDFTLKISRVEAEDVGVYYCSQNTHVPPTFGQGTKVEIERTVAAPSVFIFPPSDEQLKSGTASVVCLLNNFYPREAKVQWKVDNALQSGNSQESVTEQDSKDSTYSLSSTLTLSKADYEKHKVYACEVTHQGLSSPVTKSFNRGEC"
2,105 % of control,"GpH7-A5/GpH7-B3 variant S337_14T/GpL16-k0 (antibody, human IgG1, kappa, heterodimerized antibody, mutation in one H chain only; also called S337_14T He Ab) heavy 1: not shown heavy 2: not shown light: DIVMTQSPLSLPVTPGEPASISCQASESLVHSNRNTYLHWYLQKPGQSPQLLIYKVSNRFSGVPDRFSGSGSGTDFTLKISRVEAEDVGVYYCSQNTHVPPTFGQGTKVEIERTVAAPSVFIFPPSDEQLKSGTASVVCLLNNFYPREAKVQWKVDNALQSGNSQESVTEQDSKDSTYSLSSTLTLSKADYEKHKVYACEVTHQGLSSPVTKSFNRGEC"
3,111 % of control,"GpH7-A5/GpH7-B3 variant Y300_16H/GpL16-k0 (antibody, human IgG1, kappa, heterodimerized antibody, mutation in one H chain only; also called Y300_16H He Ab) heavy 1: not shown heavy 2: not shown light: DIVMTQSPLSLPVTPGEPASISCQASESLVHSNRNTYLHWYLQKPGQSPQLLIYKVSNRFSGVPDRFSGSGSGTDFTLKISRVEAEDVGVYYCSQNTHVPPTFGQGTKVEIERTVAAPSVFIFPPSDEQLKSGTASVVCLLNNFYPREAKVQWKVDNALQSGNSQESVTEQDSKDSTYSLSSTLTLSKADYEKHKVYACEVTHQGLSSPVTKSFNRGEC"
4,104 % of control,"GpH7-A5/GpH7-B3 variant S337_11K/GpL16-k0 (antibody, human IgG1, kappa, heterodimerized antibody, mutation in one H chain only; also called S337_11K He Ab) heavy 1: not shown heavy 2: not shown light: DIVMTQSPLSLPVTPGEPASISCQASESLVHSNRNTYLHWYLQKPGQSPQLLIYKVSNRFSGVPDRFSGSGSGTDFTLKISRVEAEDVGVYYCSQNTHVPPTFGQGTKVEIERTVAAPSVFIFPPSDEQLKSGTASVVCLLNNFYPREAKVQWKVDNALQSGNSQESVTEQDSKDSTYSLSSTLTLSKADYEKHKVYACEVTHQGLSSPVTKSFNRGEC"
5,105 % of control,"GpH7-A5/GpH7-B3 variant T335_13S/GpL16-k0 (antibody, human IgG1, kappa, heterodimerized antibody, mutation in one H chain only; also called T335_13S He Ab) heavy 1: not shown heavy 2: not shown light: DIVMTQSPLSLPVTPGEPASISCQASESLVHSNRNTYLHWYLQKPGQSPQLLIYKVSNRFSGVPDRFSGSGSGTDFTLKISRVEAEDVGVYYCSQNTHVPPTFGQGTKVEIERTVAAPSVFIFPPSDEQLKSGTASVVCLLNNFYPREAKVQWKVDNALQSGNSQESVTEQDSKDSTYSLSSTLTLSKADYEKHKVYACEVTHQGLSSPVTKSFNRGEC"
6,104 % of control,"GpH7-A5/GpH7-B3 variant Y296_03V/GpL16-k0 (antibody, human IgG1, kappa, heterodimerized antibody, mutation in one H chain only; also called Y296_03V He Ab) heavy 1: not shown heavy 2: not shown light: DIVMTQSPLSLPVTPGEPASISCQASESLVHSNRNTYLHWYLQKPGQSPQLLIYKVSNRFSGVPDRFSGSGSGTDFTLKISRVEAEDVGVYYCSQNTHVPPTFGQGTKVEIERTVAAPSVFIFPPSDEQLKSGTASVVCLLNNFYPREAKVQWKVDNALQSGNSQESVTEQDSKDSTYSLSSTLTLSKADYEKHKVYACEVTHQGLSSPVTKSFNRGEC"
7,103 % of control,"GpH7-A5/GpH7-B3 variant T335_02A/GpL16-k0 (antibody, human IgG1, kappa, heterodimerized antibody, mutation in one H chain only; also called T335_02A He Ab) heavy 1: not shown heavy 2: not shown light: DIVMTQSPLSLPVTPGEPASISCQASESLVHSNRNTYLHWYLQKPGQSPQLLIYKVSNRFSGVPDRFSGSGSGTDFTLKISRVEAEDVGVYYCSQNTHVPPTFGQGTKVEIERTVAAPSVFIFPPSDEQLKSGTASVVCLLNNFYPREAKVQWKVDNALQSGNSQESVTEQDSKDSTYSLSSTLTLSKADYEKHKVYACEVTHQGLSSPVTKSFNRGEC"
8,104 % of control,"GpH7-A5/GpH7-B3 variant Y296_07I/GpL16-k0 (antibody, human IgG1, kappa, heterodimerized antibody, mutation in one H chain only; also called Y296_07I He Ab) heavy 1: not shown heavy 2: not shown light: DIVMTQSPLSLPVTPGEPASISCQASESLVHSNRNTYLHWYLQKPGQSPQLLIYKVSNRFSGVPDRFSGSGSGTDFTLKISRVEAEDVGVYYCSQNTHVPPTFGQGTKVEIERTVAAPSVFIFPPSDEQLKSGTASVVCLLNNFYPREAKVQWKVDNALQSGNSQESVTEQDSKDSTYSLSSTLTLSKADYEKHKVYACEVTHQGLSSPVTKSFNRGEC"
9,105 % of control,"GpH7-A5/GpH7-B3 variant S337_16H/GpL16-k0 (antibody, human IgG1, kappa, heterodimerized antibody, mutation in one H chain only; also called S337_16H He Ab) heavy 1: not shown heavy 2: not shown light: DIVMTQSPLSLPVTPGEPASISCQASESLVHSNRNTYLHWYLQKPGQSPQLLIYKVSNRFSGVPDRFSGSGSGTDFTLKISRVEAEDVGVYYCSQNTHVPPTFGQGTKVEIERTVAAPSVFIFPPSDEQLKSGTASVVCLLNNFYPREAKVQWKVDNALQSGNSQESVTEQDSKDSTYSLSSTLTLSKADYEKHKVYACEVTHQGLSSPVTKSFNRGEC"
10,103 % of control,"GpH7-A5/GpH7-B3 variant Y296_02A/GpL16-k0 (antibody, human IgG1, kappa, heterodimerized antibody, mutation in one H chain only; also called Y296_02A He Ab) heavy 1: not shown heavy 2: not shown light: DIVMTQSPLSLPVTPGEPASISCQASESLVHSNRNTYLHWYLQKPGQSPQLLIYKVSNRFSGVPDRFSGSGSGTDFTLKISRVEAEDVGVYYCSQNTHVPPTFGQGTKVEIERTVAAPSVFIFPPSDEQLKSGTASVVCLLNNFYPREAKVQWKVDNALQSGNSQESVTEQDSKDSTYSLSSTLTLSKADYEKHKVYACEVTHQGLSSPVTKSFNRGEC"
11,105 % of control,"GpH7-A5/GpH7-B3 variant S337_18N/GpL16-k0 (antibody, human IgG1, kappa, heterodimerized antibody, mutation in one H chain only; also called S337_18N He Ab) heavy 1: not shown heavy 2: not shown light: DIVMTQSPLSLPVTPGEPASISCQASESLVHSNRNTYLHWYLQKPGQSPQLLIYKVSNRFSGVPDRFSGSGSGTDFTLKISRVEAEDVGVYYCSQNTHVPPTFGQGTKVEIERTVAAPSVFIFPPSDEQLKSGTASVVCLLNNFYPREAKVQWKVDNALQSGNSQESVTEQDSKDSTYSLSSTLTLSKADYEKHKVYACEVTHQGLSSPVTKSFNRGEC"
12,104 % of control,"GpH7-A5/GpH7-B3 variant T335_01G/GpL16-k0 (antibody, human IgG1, kappa, heterodimerized antibody, mutation in one H chain only; also called T335_01G He Ab) heavy 1: not shown heavy 2: not shown light: DIVMTQSPLSLPVTPGEPASISCQASESLVHSNRNTYLHWYLQKPGQSPQLLIYKVSNRFSGVPDRFSGSGSGTDFTLKISRVEAEDVGVYYCSQNTHVPPTFGQGTKVEIERTVAAPSVFIFPPSDEQLKSGTASVVCLLNNFYPREAKVQWKVDNALQSGNSQESVTEQDSKDSTYSLSSTLTLSKADYEKHKVYACEVTHQGLSSPVTKSFNRGEC"
13,104 % of control,"GpH7-A5/GpH7-B3 variant Y296_08L/GpL16-k0 (antibody, human IgG1, kappa, heterodimerized antibody, mutation in one H chain only; also called Y296_08L He Ab) heavy 1: not shown heavy 2: not shown light: DIVMTQSPLSLPVTPGEPASISCQASESLVHSNRNTYLHWYLQKPGQSPQLLIYKVSNRFSGVPDRFSGSGSGTDFTLKISRVEAEDVGVYYCSQNTHVPPTFGQGTKVEIERTVAAPSVFIFPPSDEQLKSGTASVVCLLNNFYPREAKVQWKVDNALQSGNSQESVTEQDSKDSTYSLSSTLTLSKADYEKHKVYACEVTHQGLSSPVTKSFNRGEC"
14,108 % of control,"GpH7-A5/GpH7-B3 variant Y300_07I/GpL16-k0 (antibody, human IgG1, kappa, heterodimerized antibody, mutation in one H chain only; also called Y300_07I He Ab) heavy 1: not shown heavy 2: not shown light: DIVMTQSPLSLPVTPGEPASISCQASESLVHSNRNTYLHWYLQKPGQSPQLLIYKVSNRFSGVPDRFSGSGSGTDFTLKISRVEAEDVGVYYCSQNTHVPPTFGQGTKVEIERTVAAPSVFIFPPSDEQLKSGTASVVCLLNNFYPREAKVQWKVDNALQSGNSQESVTEQDSKDSTYSLSSTLTLSKADYEKHKVYACEVTHQGLSSPVTKSFNRGEC"
